# B1: anti-IL-4R:anti-CD63 conjugate (streptavidin-conjugated anti-IL-4R antibody combined 1:1 with biotinylated anti-CD63 antibody MEM-259) (protein, part only; not given: anti-CD63 antibody MEM-259, part only)
# VH: EVQLVESGGGVVQPGRSLRLSCVASGFTFSDYGMHWVRQAPGKGLEWVAVIWYDGSIKYFRDSVKGRFTISRDNSKNTLYLQMNSLRVEDTAHYYCAKESSSWYFYHGLDVWGQGTMVTVSS
# VL: EIVMTQSPLSLPVSPGEPASISCRSNQSLLHSNGNNYLAWYLQKPGQSPHLLIYLGSNRASGVPDRFSGSGSGTDFTLKISRVEAGDVGTYFCMQSLQAPPFTFGPGTKVEIKR
# modifications: antibody conjugated to streptavidin
# Target: IL-4R (UniProt P24394)
# Assay: cell-based or functional assay
binder,measurement,value
B1,attenuation of IL-4R activity beyond the control constructs,> 10%

# From patent US20220008548A1
